# Data from patent US12304944.
# What was measured:
# [1] = tested on: hFIX R338L (codon-optimized human factor IX carrying the R338L mutation)
# [2] = tested on: hFIX R338L-2Fc (codon-optimized human factor IX R338L, XIa-cleavable linker, IgG1 Fc, 3xGGGS linker, IgG1 Fc)
# Sequence of hFIX R338L-2Fc (codon-optimized human factor IX R338L, XIa-cleavable linker, IgG1 Fc, 3xGGGS linker, IgG1 Fc) (chain, as listed by the source R338L R338L): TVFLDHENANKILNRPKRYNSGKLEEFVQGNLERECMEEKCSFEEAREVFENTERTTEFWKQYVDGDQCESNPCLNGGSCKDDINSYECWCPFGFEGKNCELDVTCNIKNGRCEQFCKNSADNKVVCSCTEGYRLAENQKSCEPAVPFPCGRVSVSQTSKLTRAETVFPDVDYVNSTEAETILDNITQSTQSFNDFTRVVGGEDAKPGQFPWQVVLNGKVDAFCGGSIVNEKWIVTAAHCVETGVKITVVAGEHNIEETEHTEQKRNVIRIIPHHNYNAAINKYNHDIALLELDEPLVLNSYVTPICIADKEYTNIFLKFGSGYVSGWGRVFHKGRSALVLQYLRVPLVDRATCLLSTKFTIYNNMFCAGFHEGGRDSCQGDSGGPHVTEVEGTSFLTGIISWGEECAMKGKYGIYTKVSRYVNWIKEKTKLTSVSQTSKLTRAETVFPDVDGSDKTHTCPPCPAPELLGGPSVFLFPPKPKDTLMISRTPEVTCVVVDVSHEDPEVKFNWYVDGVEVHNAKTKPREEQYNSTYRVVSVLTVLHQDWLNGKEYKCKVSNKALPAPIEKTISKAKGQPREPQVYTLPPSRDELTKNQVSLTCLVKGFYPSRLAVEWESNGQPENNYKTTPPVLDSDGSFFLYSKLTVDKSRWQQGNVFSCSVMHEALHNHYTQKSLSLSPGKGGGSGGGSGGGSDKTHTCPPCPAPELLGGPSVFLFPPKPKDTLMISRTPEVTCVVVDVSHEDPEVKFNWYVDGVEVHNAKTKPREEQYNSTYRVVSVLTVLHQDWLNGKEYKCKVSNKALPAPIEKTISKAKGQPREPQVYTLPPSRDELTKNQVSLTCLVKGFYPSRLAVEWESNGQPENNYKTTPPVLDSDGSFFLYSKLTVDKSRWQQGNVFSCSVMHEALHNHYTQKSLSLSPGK
# Sequence of hFIX R338L (codon-optimized human factor IX carrying the R338L mutation) (chain, as listed by the source R338L R338L): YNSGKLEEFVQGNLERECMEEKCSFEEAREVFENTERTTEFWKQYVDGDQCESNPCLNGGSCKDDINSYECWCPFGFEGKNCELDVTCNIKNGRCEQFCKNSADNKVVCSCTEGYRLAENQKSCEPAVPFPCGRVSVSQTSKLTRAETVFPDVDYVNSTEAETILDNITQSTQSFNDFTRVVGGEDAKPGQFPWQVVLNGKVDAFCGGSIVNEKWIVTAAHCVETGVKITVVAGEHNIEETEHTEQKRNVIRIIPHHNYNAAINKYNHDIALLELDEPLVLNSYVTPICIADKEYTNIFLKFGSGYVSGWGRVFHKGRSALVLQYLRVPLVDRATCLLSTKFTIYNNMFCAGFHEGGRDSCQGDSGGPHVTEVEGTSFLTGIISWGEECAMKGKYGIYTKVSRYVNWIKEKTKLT
substance,measurement,setting,value
activated factor XI (XIa),"cleavage by XIa, western blot of conditioned media treated or not with XIa",[1],Only low levels of partial XIa cleavage of media derived unpurified hFIX could be observed
same,"cleavage by XIa, western blot of conditioned media treated or not with XIa",[2],Only low levels of partial XIa cleavage of media derived unpurified hFIX could be observed
same,processing by XIa in vitro,[2],its translated protein was efficiently processed by XIa
